Results on four molecules are retold here after patent US20220041683A1 (published 2022).

What is called Kd is the equilibrium constant for the complex coming apart.

Where no end group is shown, it is not given here.

The target of assay [1] is NRP2-b1b2 (275-595) protein (UniProt O60462). Kind of assay: SPR (Biacore 2000), NRP2-b1b2 immobilised on CM5. On the technique in general: SPR reads the build-up and loss of mass on a sensor chip optically.
For assay [2] the target is unchanged. Kind of assay: SPR; KD on NRP2-b1b2 divided by KD on NRP1-b1b2.
Assay [3] has as its target NRP1-b1b2 (273-586) protein (UniProt O14786). In words: SPR (Biacore 2000), NRP1-b1b2 immobilised on CM5.
Assay [4] shares this target. Kind of assay: ELISA on immobilised NRP1-b1b2, reference Fc-TPP11. A general note: In an ELISA, binding on a coated surface is turned into a signal by an enzyme label.
For assay [5], the target named is T1, NRP1 displayed on the human umbilical vein endothelial cell (HUVEC) surface (human, UniProt O14786 22-923).
T1 construct: whole, on cells; Endogenous NRP1 of human cells; also called NRP1 on the HUVEC cell surface
Kind of assay: confocal microscopy on HUVEC. The method, then:
Specifically, 5×10⁴ HUVEC cells were added to each well of a 24-well plate and incubated in 0.5 ml of EGM2 (Endothelial growth medium, Promocell) medium for 24 hours under the conditions of 5% CO₂ and 37° C. […] Next, the medium was removed, and each well was washed with cold PBS. […] The nucleus was stained (blue fluorescence) with DAPI and analyzed by confocal microscopy.

NRP2-b1b2 (275-595) protein, sequence (O60462 275-595 limits assumed, form in doubt): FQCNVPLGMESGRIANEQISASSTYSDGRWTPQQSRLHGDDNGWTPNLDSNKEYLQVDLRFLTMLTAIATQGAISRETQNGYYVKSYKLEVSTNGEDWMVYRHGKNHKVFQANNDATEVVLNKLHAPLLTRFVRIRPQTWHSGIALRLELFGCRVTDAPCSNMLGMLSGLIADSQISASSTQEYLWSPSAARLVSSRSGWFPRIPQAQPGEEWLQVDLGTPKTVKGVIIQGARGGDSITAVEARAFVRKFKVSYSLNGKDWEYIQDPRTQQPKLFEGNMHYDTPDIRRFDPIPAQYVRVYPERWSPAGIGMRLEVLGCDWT

B1: Fc-TPP8 (Fc fusion, not shown: a dimerising Fc or GST; small tags and cut ends)
chain: GGGGSGGGGSGGGGSHTPGIATRTPR
modifications: not fully specified (N-terminus); also: Fc fusion, Fc not in chain, disulfide-linked Fc dimer
With B1, the dissociation constant (Kd) in assay [1] was found to be 254 nM; in assay [3] it was 3.85 nM. For the same molecule, in assay [2], the Binding Affinity Ratio [(KD for NRP2)/KD for NRP1)] was determined as 65.8.
Regarding HTPGNSKPTRTPRR (also: biotinylated for ELISA, position not given here) [synthetic peptide TPP11 not fused to Fc], in assay [4], the fold lower affinity than Fc-TPP11 was determined as 100 fold.

B2: Fc-A22p (Fc fusion, not shown: a dimerising Fc or GST; small tags and cut ends)
chain: HTPGNSNKWKHLQENKKGRPRR
modifications: not fully specified (N-terminus); also: fused C-terminal to Fc (hinge-CH2-CH3), isotype and sequence not given here, linker not given here
B2: the Kd in assay [1] was found to be 62 nM. The Binding Affinity Ratio [(KD for NRP2)/KD for NRP1)] in assay [2] is 0.98.

B3: Fc-TPP1 (Fc fusion)
chain: GGGGSGGGGSGGGGSHTPGNSNQFVLTSTRPPR
modifications: not fully specified (N-terminus); also: Fc fusion, peptide at end of CH3, Fc not in chain, disulfide-linked Fc dimer
notes: Disulfide-linked dimer, peptide fused to the end of CH3 by a (G4S)3 linker; expressed in HEK293-F; also called Fc-TPP1 fusion protein; Fc-TPP1 protein; not shown: Antibody heavy-chain constant region Fc (hinge-CH2-CH3)
For the molecule B3, the Kd in assay [1] was determined as 1130 nM; in assay [3] it was 1.81 nM. Also, the binding result in assay [5] is given as “binds”. Besides, the Binding Affinity Ratio [(KD for NRP2)/KD for NRP1)] in assay [2] is 625.
